The source of these data is US20220372138A1 (IOMX THERAPEUTICS, published 2022).

Like-named read-outs stand apart in the source and are kept apart here.

Assay [1] concerns the target T1, human IGSF11 (VSIG3) expressed on cells (human, UniProt Q5DX21 23-431).
T1 sequence: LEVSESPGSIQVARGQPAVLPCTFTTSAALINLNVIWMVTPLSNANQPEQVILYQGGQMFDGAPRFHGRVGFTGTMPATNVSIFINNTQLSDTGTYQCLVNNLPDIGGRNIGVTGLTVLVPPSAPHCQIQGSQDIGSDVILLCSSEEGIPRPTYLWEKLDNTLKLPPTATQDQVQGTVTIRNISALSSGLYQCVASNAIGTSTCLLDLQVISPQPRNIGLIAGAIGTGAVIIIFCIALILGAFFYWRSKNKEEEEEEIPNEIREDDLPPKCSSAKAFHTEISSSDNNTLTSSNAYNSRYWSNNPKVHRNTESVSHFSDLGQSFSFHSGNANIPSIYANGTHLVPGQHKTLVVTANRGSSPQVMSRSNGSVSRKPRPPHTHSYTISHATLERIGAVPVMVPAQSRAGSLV
As to the kind of experiment: FACS, M579-A2-luc cells with IGSF11 siRNA (KD, knock-down control).

In assay [2] the target is T2, human IGSF11 (VSIG3) ECD, His-tagged (human, UniProt Q5DX21 23-241).
T2 construct: in part bought (SinoBiological 13094-H08H); also called HIS-IGSF11; IGSF11-HIS; not shown: His tag
T2 sequence: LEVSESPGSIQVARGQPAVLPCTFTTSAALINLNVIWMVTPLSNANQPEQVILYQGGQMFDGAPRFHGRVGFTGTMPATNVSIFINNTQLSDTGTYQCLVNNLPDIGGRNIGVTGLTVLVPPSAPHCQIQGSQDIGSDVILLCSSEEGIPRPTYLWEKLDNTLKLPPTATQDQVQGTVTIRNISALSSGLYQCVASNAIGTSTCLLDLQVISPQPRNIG
The assay is described as follows: ELISA: IGSF11-HIS coated, IgG1 dilution series, anti-human antibody-HRP, TMB. (An ELISA detects its analyte on a solid surface through an enzyme-linked reagent.)

Assay [3] addresses T1, human IGSF11 (VSIG3) expressed on cells. As to the kind of experiment: FACS, DMS 273 cells with scrambled control siRNA (SC). For orientation: Flow cytometry measures light scatter and fluorescence of single cells or particles in a stream.
Assay [4] shares this target. As to the kind of experiment: IgG1 FACS DMS 273.
Assay [5] has the same target. As to the kind of experiment: IgG1 FACS HEK-OE.
Assay [6] shares this target. The assay is described as follows: FACS, DMS 273 cells with IGSF11 siRNA (KD, knock-down control).
For assay [7] the target is unchanged. As to the kind of experiment: FACS, M579-A2-luc cells with scrambled control siRNA (SC).
Assay [8] concerns the target T3, extracellular domain (ECD) of human IGSF11 (VSIG3), recombinant (human, UniProt Q5DX21 23-241).
T3 construct: biotinylated where captured on streptavidin; tags of the reagent not always stated; also called IGSF11 (ECD domain); ECD-IGSF11
T3 sequence: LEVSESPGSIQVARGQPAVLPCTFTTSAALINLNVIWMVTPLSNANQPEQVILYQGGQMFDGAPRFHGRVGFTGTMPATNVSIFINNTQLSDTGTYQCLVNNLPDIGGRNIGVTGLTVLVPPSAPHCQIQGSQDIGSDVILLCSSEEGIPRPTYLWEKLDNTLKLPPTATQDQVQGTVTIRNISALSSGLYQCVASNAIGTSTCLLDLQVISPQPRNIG
As to the kind of experiment: SPR.

The target of assay [9] is T2, human IGSF11 (VSIG3) ECD, His-tagged. As to the kind of experiment: blocking ELISA: VSIR-Fc immobilised, IgG dilution series pre-incubated with 200 nM IGSF11 ECD-His, bound IGSF11 detected with anti-His-HRP.
The target is the same in assay [10]. The assay is described as above. The source holds these as a separate data set.
Assay [11] shares this target. As to the kind of experiment: ELISA: IGSF11-HIS coated, IgG1 dilution series, anti-human antibody-HRP, TMB. The source holds these as a separate data set.
Assay [12] addresses T3, extracellular domain (ECD) of human …. The assay is described as follows: BLI.
Assay [13] has as its target T2, human IGSF11 (VSIG3) ECD, His-tagged. As to the kind of experiment: IgG1 ELISA EC50 0.02-0.05 nM.
For assay [14], the target named is T3, extracellular domain (ECD) of human …. The assay is described as follows: SPR. This is another data set of the same source. Background: In SPR one partner is held on a chip, and binding of the other changes the refractive index at the surface.
The target in assay [15] is T4, full-length ECD of human IGSF11 fused to murine Fc (human, UniProt Q5DX21 23-241).
T4 construct: also called Fc-fusion IGSF11 ECD; not shown: murine Fc
T4 sequence: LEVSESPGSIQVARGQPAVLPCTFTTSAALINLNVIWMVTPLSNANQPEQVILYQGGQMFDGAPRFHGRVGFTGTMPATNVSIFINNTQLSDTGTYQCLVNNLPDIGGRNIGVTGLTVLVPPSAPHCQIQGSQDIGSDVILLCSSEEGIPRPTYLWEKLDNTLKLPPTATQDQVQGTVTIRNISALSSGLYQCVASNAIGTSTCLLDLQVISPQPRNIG
The assay is described as follows: IgG ELISA.

The target of assay [16] is T5, IgV domain of human IGSF11 fused to murine IgG2a Fc (human, UniProt Q5DX21 23-143).
T5 construct: not shown: murine IgG2a Fc-region
T5 sequence: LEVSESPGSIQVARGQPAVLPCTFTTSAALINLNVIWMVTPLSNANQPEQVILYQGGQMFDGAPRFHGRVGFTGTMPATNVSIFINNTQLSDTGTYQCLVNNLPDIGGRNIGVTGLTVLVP
The assay is described as follows: IgG ELISA.

In assay [17] the target is T2, human IGSF11 (VSIG3) ECD, His-tagged. As to the kind of experiment: IgG1 ELISA EC50 <0.02 nM.
Assay [18] has as its target T6, IgC2 domain of human IGSF11 fused to murine IgG2a Fc (human, UniProt Q5DX21 137-241).
T6 construct: not shown: murine IgG2a Fc-region
T6 sequence: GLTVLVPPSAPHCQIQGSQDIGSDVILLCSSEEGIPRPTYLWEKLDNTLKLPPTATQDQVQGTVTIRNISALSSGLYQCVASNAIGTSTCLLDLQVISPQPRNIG
As to the kind of experiment: IgG ELISA.

B1: B-002 (chain-swapped IgG1) (antibody, V domains shown)
VH: EVQLVESGGGLIQPGGSLRLSCAASGFTVSSNYMSWVRQAPGKGLEWVSVIYSGGSTYYADSVKGRFTISRDNSKNTLYLQMNSLRAEDTAVYYCARGNPYYYGDLQVNFDYWGQGTLVTVSS
VL: QAVVTQEPSLTVSPGGTVTLTCASSTGAVTSGYYPNWFQQKPGQAPRALIYSTSNKHSWTPARFSGSLLGGKAALTLSGVQPEDEAEYYCLLYYGGAWVFGGGTKLTVL
notes: human IgG1 format; also called B2
For B1, the “% binding (FACS heat-map)” value in [1] was 2.77%; in assay [3], 80.1%; in [6], 8.68%; in assay [7], 70.7%. In assay [2], the EC50 (read off the curve) (as a rule, the concentration needed to bring the measured effect to its halfway point) is ~0.01 nM. The EC50 (in general, the concentration giving half of the maximal effect) is > 50 nM in assay [4] and 10 to 50 nM in assay [5]. The Kd – broadly, the constant that tells how readily two partners part at equilibrium – in assay [8] was in the range of 100 to 250 nM. In addition, in [9], the “IC50 (read off the curve)” value fell in the range of 4 to 5 nM.

B2: B-005 (chain-swapped IgG1) (antibody, V domains shown)
VH: EVQLLESGGGLIQPGGSLRLSCAVSGFTVSSNYMSWVRQAPGKGLEWVSVIYSGGSTYYADSVKGRFTISRDNSKNTLYLQMNSLRAEDTAVYYCARGNPYYYGDLQVNFDYWGQGTLVTVSS
VL: QAVVTQEPSLTVSPGGTVTPTCGSSTGAVTSGNLPNWFQQKPGQAPRALIYSTSNKHSWTPARISGSLLGGKAALTLSGVQPEDEAEYYCLLYYGGAWVFGGGTKLTVL
notes: human IgG1 format; also called B5
Take B2: the “IC50 (read off the curve)” value in assay [10] is ~2 nM. Also, the “EC50 (read off the curve)” value in assay [11] was ~0.01 nM.

B3: A-012 (IgG1 format) (antibody, V domains shown)
VH: EVQLLESGGGLIQPGGSLRLSCAVSGFTVSSNYMSWVRQAPGKGLEWVSVIYSGGSTYYADSVKGRFTISRDNSKNTLYLQMNSLRAEDTAVYYCARGNPYYYGDLQVNFDYWGQGTLVTVSS
VL: QAVVTQEPSLTVSPGGTVTLTCASSTGAVTSGYYPNWFQQKPGQAPRALIYSTSNKHSWTPARFSGSLLGGKAALTLSGVQPEDEAEYYCLLYYGGAWVFGGGTKLTVL
notes: human IgG1 format
On to B3, for which the “IC50 (read off the curve)” value in assay [10] is ~2 nM. The Kd fell in the range of 1 to 10 nM in [12] and 250 to 500 nM in assay [14]. For the same molecule, the “% binding (FACS heat-map)” value came out at 2.35% in assay [1], 75.8% in [3], 4.77% in [6] and 65.4% in [7]. Further, the EC50 lay within 0.02 to 0.05 nM in assay [13], 10 to 50 nM in [4] and 10 to 50 nM in assay [5]. The 50% effective concentration (EC50 (read off the curve)) in assay [11] was ~0.008 nM.

B4: B-003 (chain-swapped IgG1) (antibody, V domains shown)
VH: EVQLLESGGGLIQPGGSLRLSCAVSGFTVSSNYMSWVRQAPGKGLEWVSVIYSGGSTYYADSVKGRFTISRDNSKNTLYLQMNSLRAEDTAVYYCARGNPYYYGDLQVNFDYWGQGTLVTVSS
VL: QAVVTQEPSLTVSPGETVTLTCASSTGAVTSGYYPNWFQQRPGQAPRALIYSTSNKDSWTPARFSGSLLGGKAALTLSGVQPEDEAEYYCLLYYGGAWVFGGGTKLTVL
notes: human IgG1 format; also called B3
In the case of B4, in assay [10], the “IC50 (read off the curve)” value was ~2 nM. In addition, in assay [11], the “EC50 (read off the curve)” value is ~0.008 nM.

B5: B-001 (chain-swapped IgG1) (antibody, V domains shown)
VH: EVQLLESGGGLIQPGGSLRLSCAVSGFTVSSNYMSWVRQAPGKGLEWVSVIYSGGSTYYADSVKGRFTISRDNSKNTLYLQMNSLRAEDTAVYYCARGNPYYYGDLQVNFDYWGQGTLVTVSS
VL: QAVVTQEPSLTVSPGGTVTLTCASSTGAVTSAYYPNWFQQKPGQAPRALIYSTSNKHSWTPARFSGSLLGGKAALTLSGVQPEDEADYYCLLYYGGAWVFGGGTKLTVL
notes: human IgG1 format; also called B1
As for B5, the “IC50 (read off the curve)” value in assay [10] is ~2 nM. This molecule yielded an EC50 in assay [5] of 10 to 50 nM. The Kd in [8] is 250 to 500 nM.

B6: A-010 (IgG1 format) (antibody, V domains shown)
VH: QVQLVQSGAEVKKPGASVKVSCKASGYTFTSYGISWVRQAPGQGLEWMGWISAYNGNTNYAQKLQGRVTMTTDTSTSTAYMELRSLRSDDTAVYYCARVPAWSGQFDYWGQGTLVTVSS
VL: QSALTQPASVSGSPGQSITISCTGSSSDVGGYNYVSWYQQYPGKAPKLMIYDVRSRPSGVSNRFSGSKSGNTASLTISGLQAEDEADYYCTSYTSSNTLVIFGGGTKVTVL
notes: human IgG1 format
In the case of B6, the results for the EC50 in assay [15], in assay [16] and in assay [17] were < 1 nM, < 1 nM and < 0.02 nM, respectively.

B7: A-026 (IgG1 format) (antibody, V domains shown)
VH: QVQLQESGPGLVKPSQTLSLTCTVSGGSISSGGYYWSWIRQHPGKGLEWIGYIYYSGSTYYNPSLKSRVTISVDTSKNQFSLKLSSVTAADTAVYYCASWSLGTSNHGWFDPWGQGTLVTVSS
VL: QSVLTQPPSASGTPGQRVTISCSGSSSNIGSNTVNWYQQLPGTAPKLLISDNNNRPSGVPDRFSGSKSGTSASLAITGLQAEDEADYYCQSYDSNLSGWVFGGGTKLTVL
notes: human IgG1 format
Turning to B7, the Kd is 20 to 30 nM in assay [12] and > 500 nM in assay [14]. The “% binding (FACS heat-map)” value in [1] came to 2.01%; in assay [3], 64.4%; in assay [6] it was 3.81%; in assay [7], 11.6%. Also, the EC50 is 0.02 to 0.05 nM in assay [13], 1 to 20 nM in assay [15], 1 to 20 nM in assay [18] and > 50 nM in [5].

B8: A-004 (IgG1 format) (antibody, V domains shown)
VH: EVQLVESGGGLVKPGGSLRLSCAASGFTFSSYSMNWVRQAPGKGLEWVSSISSSSSYIYYADSVKGRFTISRDNAKNSLYLQMNSLRAEDTAVYYCARGQLLWFGESALIDAFDIWGQGTMVTVSS
VL: EIVLTQSPSSLSASVGDRVTITCRASQSISSYLNWYQLKPGKAPKLLIYAASILQSGVPSRFSGSGSGTDFTLTISSLQPEDFAAYYCQQSYSTPRTFGQGTKLEIK
notes: human IgG1 format
In the case of B8, the EC50 in [15] was 1 to 20 nM; in [16] it was 1 to 20 nM; in assay [17], < 0.02 nM. For the same molecule, the Kd in assay [14] is 100 to 250 nM.
